Measurements: the Immune Epitope Database (IEDB)

Assays:
Test in all cases: IEDB peptide-MHC binding, purified MHC/competitive/radioactivity; filed as Kd, often an IC50 or EC50 that approximates it; ≥ and ≤ were set here for values at or beyond the usual limits of such assays
[1] = target: HLA-A*02:06; settings: source organism: Plasmodium falciparum
[2] = target: HLA-A*31:01
[3] = target: HLA-A*33:01
[4] = target: HLA-A*68:01
[5] = target: HLA-A*03:01
[6] = target: HLA-A*11:01
[7] = target: HLA-A*02:01
[8] = target: HLA-A*68:02; settings: source organism: Plasmodium falciparum
[9] = target: HLA-A*02:03; settings: source organism: Plasmodium falciparum
[10] = target: HLA-A*02:02; settings: source organism: Plasmodium falciparum
[11] = target: HLA-B*53:01; settings: source organism: Plasmodium falciparum 3D7
[12] = target: HLA-B*07:02; settings: source organism: Plasmodium falciparum 3D7
[13] = target: HLA-B*35:01; settings: source organism: Plasmodium falciparum 3D7
[14] = target: HLA-B*51:01; settings: source organism: Plasmodium falciparum 3D7
[15] = target: HLA-B*54:01; settings: source organism: Plasmodium falciparum 3D7
[16] = source organism: Plasmodium falciparum
[17] = source organism: Plasmodium falciparum 3D7

Sequence: KILSVFFLA
- Kd [1]: 8 nM
- Kd [2, 16]: 7830 nM
- Kd [3, 16]: 5920 nM
- Kd [4, 16]: 8890 nM
- Kd [5, 16]: 18 nM
- Kd [6, 16]: 3.2 nM

Sequence: FLIFFDLFLV
- Kd [7, 17]: 12 nM

Sequence: ILSVSSFLFV
- Kd [1]: 587 nM
- Kd [8]: 2100 nM
- Kd [9]: 19 nM
- Kd [10]: 3580 nM

Sequence: GVSENIFLK
- Kd [2, 16]: 2250 nM
- Kd [3, 16]: 8290 nM
- Kd [4, 16]: 10 nM
- Kd [5, 16]: 151 nM
- Kd [6, 16]: 5 nM

Sequence: SLLSTNLPY
- Kd [2, 17]: ≥ 10000 nM
- Kd [3, 17]: ≥ 10000 nM
- Kd [4, 17]: ≥ 10000 nM
- Kd [5, 17]: 1150 nM
- Kd [6, 17]: 353 nM

Sequence: HPSDGKCNL
- Kd [11]: 3320 nM
- Kd [12]: 275 nM
- Kd [13]: ≥ 10000 nM
- Kd [14]: ≥ 10000 nM
- Kd [15]: ≥ 10000 nM

Sequence: RINEEKHEK
- Kd [2, 16]: 486 nM
- Kd [3, 16]: ≥ 10000 nM
- Kd [4, 16]: ≥ 10000 nM
- Kd [5, 16]: 786 nM
- Kd [6, 16]: 40 nM

Sequence: VLYNTEKGR
- Kd [2, 16]: 8570 nM
- Kd [4, 16]: 1230 nM
- Kd [5, 16]: 282 nM
- Kd [6, 16]: 3160 nM

Sequence: VLSHNSYEK
- Kd [2, 16]: ≥ 10000 nM
- Kd [3, 16]: ≥ 10000 nM
- Kd [4, 16]: 2860 nM
- Kd [5, 16]: 79 nM
- Kd [6, 16]: 19 nM

Sequence: GLIMVLSFL
- Kd [7, 16]: 22 nM

Sequence: TPYAGEPAPF
- Kd [11]: 158 nM
- Kd [14]: 15 nM
- Kd [15]: ≥ 10000 nM

Sequence: SLYDEHIKK
- Kd [2, 16]: ≥ 10000 nM
- Kd [3, 16]: ≥ 10000 nM
- Kd [4, 16]: 615 nM
- Kd [5, 16]: 28 nM
- Kd [6, 16]: 8.6 nM

Sequence: FILVNLLIFH
- Kd [2, 16]: 1960 nM
- Kd [3, 16]: 397 nM
- Kd [5, 16]: 733 nM
- Kd [6, 16]: 1330 nM

Sequence: VLLGGVGLVL
- Kd [10]: ≥ 10000 nM

Sequence: KSLYDEHIKK
- Kd [2, 16]: ≥ 10000 nM
- Kd [3, 16]: ≥ 10000 nM
- Kd [4, 16]: ≥ 10000 nM
- Kd [5, 16]: 1000 nM
- Kd [6, 16]: 29 nM

Sequence: RLHSDASKNK
- Kd [2, 17]: ≥ 10000 nM
- Kd [3, 17]: ≥ 10000 nM
- Kd [4, 17]: ≥ 10000 nM
- Kd [5, 17]: 256 nM
- Kd [6, 17]: 600 nM

Sequence: GTGSGVSSK
- Kd [2, 16]: ≥ 10000 nM
- Kd [3, 16]: ≥ 10000 nM
- Kd [4, 16]: 3480 nM
- Kd [5, 16]: 126 nM
- Kd [6, 16]: 40 nM

Sequence: ALLACAGLAY
- Kd [2, 17]: 5460 nM
- Kd [3, 17]: 5090 nM
- Kd [4, 17]: ≥ 10000 nM
- Kd [5, 17]: 355 nM

Sequence: GTGSGVSSKK
- Kd [2, 16]: ≥ 10000 nM
- Kd [3, 16]: ≥ 10000 nM
- Kd [4, 16]: ≥ 10000 nM
- Kd [5, 16]: 1100 nM
- Kd [6, 16]: 353 nM

Sequence: KSLYDEHIK
- Kd [2, 16]: ≥ 10000 nM
- Kd [3, 16]: ≥ 10000 nM
- Kd [4, 16]: ≥ 10000 nM
- Kd [5, 16]: ≥ 10000 nM
- Kd [6, 16]: 231 nM

Sequence: VTCGNGIQVR
- Kd [2, 16]: 15 nM
- Kd [4, 16]: 444 nM
- Kd [5, 16]: 6880 nM
- Kd [6, 16]: 11 nM

Sequence: LLACAGLAY
- Kd [2, 17]: ≥ 10000 nM
- Kd [3, 17]: 6590 nM
- Kd [4, 17]: 2500 nM

Sequence: FLKENKLNK
- Kd [2, 16]: ≥ 10000 nM
- Kd [3, 16]: 2640 nM
- Kd [4, 16]: 444 nM
- Kd [5, 16]: 145 nM
- Kd [6, 16]: 3750 nM

Sequence: IIRLHSDASK
- Kd [2, 17]: ≥ 10000 nM
- Kd [3, 17]: ≥ 10000 nM
- Kd [4, 17]: ≥ 10000 nM
- Kd [5, 17]: 324 nM
- Kd [6, 17]: ≥ 10000 nM

Sequence: HVLSHNSYEK
- Kd [2, 16]: ≥ 10000 nM
- Kd [3, 16]: ≥ 10000 nM
- Kd [5, 16]: 407 nM
- Kd [6, 16]: 200 nM
